Test results from the supplement of paper PMC9732359.
± gives the uncertainty stated by the source.

Experiment: protein stability index of a GFP-peptide fusion (yeast GPS) (PSI 1-4); higher = more stable; sorted into four equal gates, so the index is relative within each strain
Outline: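 The protein stability index combines read frequencies across sorting gates, each weighted by its gate number and then summed. To obtain those frequencies, a pooled yeast library of GFP fusions to tiled 17-residue yeast protein peptides, on a plasmid also expressing Cherry, was grown to mid-log phase in leucine-free medium. The cells were sorted into four equal gates by GFP/Cherry ratio before plasmid amplification by PCR and Illumina sequencing.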

IWLRKTSQMDLARDTPS [RRP4]
protein stability index (doa10∆): 1.61 ± 0.041
protein stability index (pdr5∆): 1.98 ± 0.051
protein stability index (san1∆): 1.54 ± 0.097
protein stability index (ubr1∆): 1.5 ± 0.044

DIWRVAGKFELLDRILP [SNF2]
protein stability index (doa10∆): 2.37 ± 0.086
protein stability index (pdr5∆): 2.65 ± 0.08
protein stability index (san1∆): 2.02 ± 0.14
protein stability index (ubr1∆): 2.54 ± 0.1

IDEKSQFVETIVSKSIE [RPN2]
protein stability index (doa10∆): 1.68 ± 0.1
protein stability index (pdr5∆): 2.19 ± 0.1
protein stability index (san1∆): 1.64 ± 0.096
protein stability index (ubr1∆): 1.98 ± 0.089

KDKLREFIPHSTEYMMQ [RPN6]
protein stability index (doa10∆): 3.46 ± 0.11
protein stability index (pdr5∆): 3.22 ± 0.11
protein stability index (san1∆): 2.83 ± 0.075
protein stability index (ubr1∆): 2.63 ± 0.087

ISTSDVTRIINSSEIQS [RPL4A]
protein stability index (doa10∆): 2.39 ± 0.04
protein stability index (pdr5∆): 2.64 ± 0.054
protein stability index (san1∆): 2.34 ± 0.071
protein stability index (ubr1∆): 2.58 ± 0.043

SMENYHLLIKIIRQLSE [SRB8]
protein stability index (doa10∆): 1.71 ± 0.058
protein stability index (pdr5∆): 1.77 ± 0.064
protein stability index (san1∆): 2.31 ± 0.11
protein stability index (ubr1∆): 1.63 ± 0.046

QKSSKENIENEEYVINL [ECM29]
protein stability index (doa10∆): 3.02 ± 0.1
protein stability index (pdr5∆): 3.32 ± 0.086
protein stability index (san1∆): 2.75 ± 0.082
protein stability index (ubr1∆): 3.02 ± 0.082

QRQDFERVRLRPEQLSN [SNF6]
protein stability index (doa10∆): 1.98 ± 0.05
protein stability index (pdr5∆): 2.43 ± 0.062
protein stability index (san1∆): 2.21 ± 0.064
protein stability index (ubr1∆): 2.25 ± 0.034

NGVPGQALDAVRMRLAQ [MED8]
protein stability index (doa10∆): 1.38 ± 0.067
protein stability index (pdr5∆): 1.39 ± 0.063
protein stability index (san1∆): 1.25 ± 0.1
protein stability index (ubr1∆): 1.26 ± 0.047

RMKQYLKTKLLEEVEGS [RPB7]
protein stability index (doa10∆): 3.09 ± 0.13
protein stability index (pdr5∆): 3.09 ± 0.1
protein stability index (san1∆): 3.11 ± 0.088
protein stability index (ubr1∆): 3.24 ± 0.13

QIANEFNTQQGIKKHSL [YDL116W/NUP84]
protein stability index (doa10∆): 3.01 ± 0.055
protein stability index (pdr5∆): 3.3 ± 0.049
protein stability index (san1∆): 3.18 ± 0.04
protein stability index (ubr1∆): 3.11 ± 0.038

ANNQEYDLNFKLRETLV [SMC1]
protein stability index (san1∆): 3.63 ± 0.18
protein stability index (ubr1∆): 3.41 ± 0.21

RSKGKQNRPYNHPELQG [RPC17]
protein stability index (doa10∆): 2.08 ± 0.047
protein stability index (pdr5∆): 2.32 ± 0.082
protein stability index (san1∆): 2.03 ± 0.088
protein stability index (ubr1∆): 1.94 ± 0.053

TDIKQFLELTRRADVKT [RPL38]
protein stability index (doa10∆): 2.95 ± 0.17
protein stability index (pdr5∆): 3.29 ± 0.17

ANNNINSASSAPTPAAP [SWI1]
protein stability index (doa10∆): 2.99 ± 0.064
protein stability index (pdr5∆): 2.88 ± 0.077
protein stability index (san1∆): 3.05 ± 0.078
protein stability index (ubr1∆): 2.97 ± 0.064

KKVNGTSYKKWSFDLPE [PRP8]
protein stability index (doa10∆): 2.2 ± 0.07
protein stability index (pdr5∆): 2.36 ± 0.084
protein stability index (san1∆): 2.25 ± 0.1
protein stability index (ubr1∆): 3.35 ± 0.12

KTMKTFVIHIQEKNFQT [RPB5]
protein stability index (doa10∆): 2.05 ± 0.091
protein stability index (pdr5∆): 1.85 ± 0.072
protein stability index (san1∆): 1.88 ± 0.14
protein stability index (ubr1∆): 2.56 ± 0.088

ANSESGHYQAFIRDELD [UBP6]
protein stability index (doa10∆): 3.31 ± 0.28
protein stability index (pdr5∆): 2.76 ± 0.11
protein stability index (ubr1∆): 2.66 ± 0.17

HKQGSSYVAVLGMGKAV [POP7]
protein stability index (doa10∆): 1.69 ± 0.077
protein stability index (pdr5∆): 1.71 ± 0.053
protein stability index (san1∆): 1.66 ± 0.082
protein stability index (ubr1∆): 1.86 ± 0.062

VKKLEIQQHARYDCSFC [RPL43A]
protein stability index (doa10∆): 2.73 ± 0.11
protein stability index (pdr5∆): 2.87 ± 0.092
protein stability index (san1∆): 2.96 ± 0.068
protein stability index (ubr1∆): 3.3 ± 0.092

KVAQLRQTGPAKINEVY [NSL1]
protein stability index (doa10∆): 2.97 ± 0.14
protein stability index (pdr5∆): 3.04 ± 0.15
protein stability index (san1∆): 2.84 ± 0.1
protein stability index (ubr1∆): 3.58 ± 0.11

INGWELTKAQKYLEQVL [RPL17A]
protein stability index (doa10∆): 3.34 ± 0.06
protein stability index (pdr5∆): 3.44 ± 0.053
protein stability index (san1∆): 3.4 ± 0.036
protein stability index (ubr1∆): 3.36 ± 0.046

KIADNISKDENEDQFLE [YDL116W/NUP84]
protein stability index (doa10∆): 2.92 ± 0.14
protein stability index (pdr5∆): 2.98 ± 0.13
protein stability index (san1∆): 2.86 ± 0.13
protein stability index (ubr1∆): 3.33 ± 0.1

TVENPLRNWEELNIIPR [PRP28]
protein stability index (doa10∆): 1.49 ± 0.041
protein stability index (pdr5∆): 1.9 ± 0.054
protein stability index (san1∆): 1.48 ± 0.086
protein stability index (ubr1∆): 1.77 ± 0.046

YKLGKVKKVQLGKKGVP [RPS4A]
protein stability index (doa10∆): 2.85 ± 0.14
protein stability index (pdr5∆): 2.98 ± 0.16
protein stability index (san1∆): 3.19 ± 0.049
protein stability index (ubr1∆): 2.94 ± 0.11

EAGASAELDDCRGVSEN [RPO21]
protein stability index (doa10∆): 3.47 ± 0.11
protein stability index (pdr5∆): 3.54 ± 0.15
protein stability index (san1∆): 3.26 ± 0.08
protein stability index (ubr1∆): 3.6 ± 0.13

LPRKEVDDVLGGGWDNV [RPC11]
protein stability index (doa10∆): 3.17 ± 0.1
protein stability index (pdr5∆): 3.63 ± 0.14
protein stability index (san1∆): 3.26 ± 0.066
protein stability index (ubr1∆): 3.32 ± 0.099
